Laboratory results reported in article PMC12120360, “Lysine acetylation modulates s‐OPA1 GTPase activity and oligomerization in mitochondrial membrane remodeling” (Protein Science : A Publication of the Protein Society, 2025).
Where a chain is given by its changes, count along the chain named.

B1: s-OPA1 K579R (domain or fragment, human, UniProt O60313-1 195-960, looked up)
chain: ATDRGSESDKHFRKVSDKEKIDQLQEELLHTQLKYQRILERLEKENKELRKLVLQKDDKGIHHRKLKKSLIDMYSEVLDVLSDYDASYNTQDHLPRVVVVGDQSAGKTSVLEMIAQARIFPRGSGEMMTRSPVKVTLSEGPHHVALFKDSSREFDLTKEEDLAALRHEIELRMRKNVKEGCTVSPETISLNVKGPGLQRMVLVDLPGVINTVTSGMAPDTKETIFSISKAYMQNPNAIILCIQDGSVDAERSIVTDLVSQMDPHGRRTIFVLTKVDLAEKNVASPSRIQQIIEGKLFPMKALGYFAVVTGKGNSSESIEAIREYEEEFFQNSKLLKTSMLKAHQVTTRNLSLAVSDCFWKMVRESVEQQADSFKATRFNLETEWRNNYPRLRELDRNELFEKAKNEILDEVISLSQVTPKHWEEILQQSLWERVSTHVIENIYLPAAQTMNSGTFNTTVDIKLKQWTDKQLPNKAVEVAWETLQEEFSRFMTEPKGKEHDDIFDKLKEAVKEESIKRHKWNDFAEDSLRVIQHNALEDRSISDKQQWDAAIYFMEEALQARLKDTENAIENMVGPDWKKRWLYWKNRTQEQCVHNETKNELEKMLKCNEEHPAYLASDEITTVRKNLESRGVEVDPSLIKDTWHQVYRRHFLKTALNHCNLCRRGFYYYQRHFVDSELECNDVVLFWRIQRMLAITANTLRQQLTNTEVRRLEKNVKEVLEDFAEDGEKKIKLLTGKRVQLAEDLKKVREIQEKLDAFIEALHQEK
modifications: endogenous lysine acetylation, sites listed in Figure 2c
notes: Optic Atrophy 1 (OPA1), human, short form (s-OPA1), residues 195-960; domain model of isoform 1; Gene bought from Genscript in the pGS-21a vector; source: E. coli BL21 (DE3), purified (glutathione resin, 3C protease cleavage, size exclusion chromatography)
B2: s-OPA1 K663Q (domain or fragment, human, UniProt O60313-1 195-960, looked up)
chain: B1 chain with R385K, K469Q
modifications: endogenous lysine acetylation, sites listed in Figure 2c
notes: as for B1
B3: s-OPA1 K663R (domain or fragment, human, UniProt O60313-1 195-960, looked up)
chain: B1 chain with R385K, K469R
modifications: endogenous lysine acetylation, sites listed in Figure 2c
notes: as for B1

Molecular target: the molecule itself
Experiment: mass photometry; protein in solution at 75 nM final; 20 mM HEPES-NaOH pH 7.5, 130 mM NaCl, 10 mM KCl, 2 mM MgCl2, 2 mM DTT, 2% glycerol; Refeyn mass photometer; mass measured three times for each protein

Stoichiometry N, 2:
B1, B2, B3
